What was measured:
[1] = biological target: UL141-GPI (GPI-anchored ectodomain of HCMV UL141, FIX strain) (human cytomegalovirus (FIX strain)) (UniProt Q6RJQ3); assay: flow cytometry on cells
[2] = anti-TRAIL-R1 immunofluorescence after His-hTRAIL, reconstituted DKO cells; details: glycan lost; control: TRAIL-R1 WT
[3] = DISC immunoprecipitation and immunoblot, U2OS; details: glycan lost; control: TRAIL-R1 WT
[4] = immunofluorescence of receptor clustering after TRAIL, U2OS; details: glycan lost; control: TRAIL-R1 WT
[5] = DISC immunoprecipitation and immunoblot, reconstituted DKO cells; details: glycan lost; control: TRAIL-R1 WT
[6] = surface flow cytometry with MD5-1, B16; details: glycan lost; control: WT mTRAIL-R
[7] = receptor clustering upon ligand binding, B16 and U2OS; details: glycan lost; control: WT mTRAIL-R
receptor internalization = details: glycan lost; control: WT mTRAIL-R

Chain of UniProt Q6RJQ3 (Q6RJQ3 37-278): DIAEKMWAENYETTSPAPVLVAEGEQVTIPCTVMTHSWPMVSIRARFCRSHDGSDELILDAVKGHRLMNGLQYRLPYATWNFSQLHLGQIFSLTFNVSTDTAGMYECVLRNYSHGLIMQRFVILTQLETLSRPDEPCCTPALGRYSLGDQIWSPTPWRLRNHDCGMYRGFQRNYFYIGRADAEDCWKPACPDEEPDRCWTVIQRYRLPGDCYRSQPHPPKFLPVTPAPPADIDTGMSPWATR

## TRAIL-R1-Fc N156A (N-glycosylation-deficient human TRAIL-R1 fused to human Fc IgG1) (from UniProt O00220 24-239) (Fc fusion)
[1]
  fold higher binding affinity than glycosylated TRAIL-R1: 5 fold

## TRAIL-R1: N156A
[2]
  oligomerisation: decreases
[3]
  other: DISC formation (caspase-8/-10 recruitment): decreases
[4]
  oligomerisation: decreases
[5]
  other: DISC formation (caspase-8/-10 recruitment): decreases

B1: mTRAIL-R (mouse TRAIL receptor): N99A (protein)
parent chain: MEPPGPSTPTASAAARADHYTPGLRPLPKRRLLYSFALLLAVLQAVFVPVTANPAHNRPAGLQRPEESPSRGPCLAGQYLSEGNCKPCREGIDYTSHSNHSLDSCILCTVCKEDKVVETRCNITTNTVCRCKPGTFEDKDSPEICQSCSNCTDGEEELTSCTPRENRKCVSKTAWASWHKLGLWIGLLVPVVLLIGALLVWKTGAWRQWLLCIKRGCERDPESANSVHSSLLDRQTSSTTNDSNHNTEPGKTQKTGKKLLVPVNGNDSADDLKFIFEYCSDIVPFDSWNRLMRQLGLTDNQIQMVKAETLVTREALYQMLLKWRHQTGRSASINHLLDALEAVEERDAMEKIEDYAVKSGRFTYQNAAAQPETGPGGSQCV
[6]
  expression_or_secretion: no change

B2: mTRAIL-R (mouse TRAIL receptor): N99/150A (protein)
parent chain: B1 parent chain
[6]
  expression_or_secretion: no change

B3: mTRAIL-R (mouse TRAIL receptor): N122/150A (protein)
parent chain: B1 parent chain
[6]
  expression_or_secretion: no change

B4: mTRAIL-R (mouse TRAIL receptor): N99/122A (protein)
parent chain: B1 parent chain
[7]
  oligomerisation: decreases
[6]
  expression_or_secretion: no change
Receptor internalization
  localisation_or_trafficking: increases

B5: mTRAIL-R (mouse TRAIL receptor): N99/122/150A (protein)
parent chain: B1 parent chain
[7]
  oligomerisation: decreases
[6]
  expression_or_secretion: decreases

— PMC5344210
